Assay [1] addresses Val122Ile transthyretin (V122I TTR) (human) (UniProt P02766). Briefly: native gel or EMSA.
The target in assay [2] is wild-type transthyretin (WT TTR) (human) (UniProt P02766). Briefly: native gel or EMSA.

The substance “tandem flag-tagged Val122Ile transthyretin (FT2·V122I TTR) (from UniProt P02766 21-147) (natural protein)” showed a t50 of formation of the 2 FT2/2 TTR heterotetramer in assay [1] of 2.84 h.
With “tandem flag-tagged wild-type transthyretin (FT2·WT TTR) (from UniProt P02766 21-147) (natural protein)”, in assay [2], the Kex (subunit exchange rate constant) worked out at 0.28 h⁻¹ and the t50 of formation of the 2 FT2/2 TTR heterotetramer turned out to be 12.5 h.

The values above are taken from PMC4204887.
